Measurements from US20230340081A1 (Hoffmann-La Roche, published 2023).
Numbering of substitutions follows the chain as printed.

T1: consensus S-HBs protein of HBV genotype I (ConsHBAg_I) (hepatitis B virus genotype I (consensus), UniProt P31873 175-400)
T1 construct: also called genotype I S-HBs
T1 chain: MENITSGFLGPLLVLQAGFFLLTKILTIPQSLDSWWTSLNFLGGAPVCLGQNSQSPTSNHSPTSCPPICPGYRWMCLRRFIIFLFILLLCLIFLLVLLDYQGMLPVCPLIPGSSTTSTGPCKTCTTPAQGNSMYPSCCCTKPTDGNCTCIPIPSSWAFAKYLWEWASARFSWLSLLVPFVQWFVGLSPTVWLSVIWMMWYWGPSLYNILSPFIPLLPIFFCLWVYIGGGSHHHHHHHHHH

T2: consensus S-HBs protein of HBV genotype E (ConsHBAg_E) (hepatitis B virus genotype E (consensus), UniProt Q69603 174-399)
T2 construct: also called genotype E S-HBs
T2 chain: T1 chain with N3S, K122R, P127L, N131T, Y134F, T140S, T143S, A159G, Y161F, V184A

B1: Bc1.128 (antibody)
heavy: not shown
light: DIQLTQSPSSLSASVGDRVTITCRASQGIRSDLGWYQQKPGKAPKRLIYGASNLQRGVPSRFSGSGSGTEFTLTISSLQPEDFASYYCLQHNSFPWTFGQGTKVEIKRTVAAPSVFIFPPSDEQLKSGTASVVCLLNNFYPREAKVQWKVDNALQSGNSQESVTEQDSKDSTYSLSSTLTLSKADYEKHKVYACEVTHQGLSSPVTKSFNRGEC
B2: Bc3.106 (antibody)
heavy: not shown
light: B1 light with L4M, S31N, G50A, N53S, R56S, S85T, F94Y, W96R
B3: Bc1.187 (antibody, human IgG1, kappa)
heavy: not shown
light: DIQMTQSPSSLSAYVGDRVTITCRASQRISTYLNWYHQRPGKSPSLLIYGASSLQSGVPSRFSASASGTDFTLTISSLRPEDLGTYYCQQTYTLPPNSGGGTKVEIKRTVAAPSVFIFPPSDEQLKSGTASVVCLLNNFYPREAKVQWKVDNALQSGNSQESVTEQDSKDSTYSLSSTLTLSKADYEKHKVYACEVTHQGLSSPVTKSFNRGEC
notes: also called Bcl.187; Bc1.187_huIgG1_wt
B4: Bc8.111 (antibody)
heavy: not shown
light: QSVLTQPHSVSESPGKTVTISCTRSSGSIASNYVQWYQQRPGSAPTTVIYEDNERPSGVPARFSGSIDSSSNSASLTISGLKTEDEADYYCQSYESSNWVFGGGTKLTVLGQPKAAPSVTLFPPSSEELQANKATLVCLISDFYPGAVTVAWKADSSPVKAGVETTTPSKQSNNKYAASSYLSLTPEQWKSHRSYSCQVTHEGSTVEKTVAPTECS
B5: Bv4.115 (antibody)
heavy: not shown
light: DIQMTQSPSTLSASVGDRVTITCRASQSINTWLAWYQQKPGKAPKLLISKASSLESGVPSRFSGSGSGTEFTLSISSLQPDDFATYYCQQYNTFSFGQGTKLEIKRTVAAPSVFIFPPSDEQLKSGTASVVCLLNNFYPREAKVQWKVDNALQSGNSQESVTEQDSKDSTYSLSSTLTLSKADYEKHKVYACEVTHQGLSSPVTKSFNRGEC
B6: Bc1.229 (antibody, V domains shown)
VH: QVQLVESGGGVVQPGRSLRVSCAASGFTFSNYGMHWVRQAPGKGLEWLAVIWNDGSNKYYADSVKGRFIISRDNSKNTLYLQMNSLGAEDTAMYYCAREGLTSVTMLDSWGQGALVTVSS
VL: DIQMTQSPSSLSASVGDRVTITCRASQYISSFLNWYQQKPGKAPKLLIHVASSLQSGVPSRFSGSGSGTHFTLTISSLQPEDFATYYCQQSYSTPLFTFGPGTKVDIKR

Target: T3, Adw S-HBs protein (adw HBsAg particles, GenHevac (Adw)) (hepatitis B virus, adw subtype)
T3 construct: also called GenHevac-B
Test: ELISA, AUC of binding curve
Set-up: unit not given beside the values

| Binder | AUC (serotype binding) |
| --- | --- |
| B1 | 35 |
| B2 | 36 |
| B3 | 36 |
| B4 | 35 |
| B5 | 36 |
| B6 | 35 |

Target: T4, Ayw S-HBs protein (ayw HBsAg particles, Engerix-B (Ayw)) (hepatitis B virus, ayw subtype)
Test: ELISA, AUC of binding curve
Set-up: unit not given beside the values

| Binder | AUC (serotype binding) |
| --- | --- |
| B1 | 37 |
| B2 | 37 |
| B3 | 35 |
| B4 | 36 |
| B5 | 37 |
| B6 | 34 |

Target: T1, consensus S-HBs protein of HBV genotype …
Test: flow cytometry, S-HBs-transfected 293-F cells

| Binder | % of bound S-HBs-expressing cells [%] |
| --- | --- |
| B1 | 47 |
| B2 | 53 |
| B3 | 54 |
| B4 | 52 |
| B5 | 71 |
| B6 | 64 |

Target: genotype D S-HBs mutant protein Y134V (hepatitis B virus genotype D, UniProt P03138 164-389)
Test: flow cytometry, S-HBs-transfected 293-F cells

| Binder | % of bound S-HBs-expressing cells [%] |
| --- | --- |
| B1 | 47 |
| B2 | 69 |
| B3 | 57 |
| B4 | 56 |
| B5 | 66 |
| B6 | 67 |

Target: genotype D S-HBs mutant protein M133T (hepatitis B virus genotype D, UniProt P03138 164-389)
Test: flow cytometry, S-HBs-transfected 293-F cells

| Binder | % of bound S-HBs-expressing cells [%] |
| --- | --- |
| B1 | 48 |
| B2 | 66 |
| B3 | 52 |
| B4 | 54 |
| B5 | 67 |
| B6 | 62 |

Target: T5, consensus S-HBs protein of HBV genotype A (ConsHBAg_A) (hepatitis B virus genotype A (consensus), UniProt P03141 175-400)
T5 construct: also called genotype A S-HBs
Test: flow cytometry, S-HBs-transfected 293-F cells

| Binder | % of bound S-HBs-expressing cells [%] |
| --- | --- |
| B1 | 64 |
| B2 | 70 |
| B3 | 73 |
| B4 | 65 |
| B5 | 88 |
| B6 | 75 |

Target: genotype D S-HBs mutant protein G145R (hepatitis B virus genotype D, UniProt P03138 164-389)
Test: flow cytometry, S-HBs-transfected 293-F cells

| Binder | % of bound S-HBs-expressing cells [%] |
| --- | --- |
| B1 | 0 |
| B2 | 67 |
| B3 | 17 |
| B4 | 0 |
| B5 | 60 |

Target: genotype D S-HBs mutant protein N146S (hepatitis B virus genotype D, UniProt P03138 164-389)
Test: flow cytometry, S-HBs-transfected 293-F cells

| Binder | % of bound S-HBs-expressing cells [%] |
| --- | --- |
| B1 | 46 |
| B2 | 63 |
| B3 | 48 |
| B4 | 55 |
| B5 | 67 |
| B6 | 56 |

Target: T6, consensus S-HBs protein of HBV genotype H (ConsHBAg_H) (hepatitis B virus genotype H (consensus), UniProt Q8JMZ6 175-400)
T6 construct: also called genotype H S-HBs
T6 sequence (Q8JMZ6 175-400, tags left off): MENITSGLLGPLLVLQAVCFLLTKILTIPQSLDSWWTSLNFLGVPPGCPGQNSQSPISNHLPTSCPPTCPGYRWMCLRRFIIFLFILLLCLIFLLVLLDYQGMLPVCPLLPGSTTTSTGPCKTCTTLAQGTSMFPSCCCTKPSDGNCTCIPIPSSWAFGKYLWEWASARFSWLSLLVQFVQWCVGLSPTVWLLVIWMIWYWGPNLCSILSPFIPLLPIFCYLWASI
Test: flow cytometry, S-HBs-transfected 293-F cells

| Binder | % of bound S-HBs-expressing cells [%] |
| --- | --- |
| B1 | 59 |
| B2 | 59 |
| B3 | 59 |
| B4 | 67 |
| B5 | 77 |
| B6 | 74 |

Target: T7, consensus S-HBs protein of HBV genotype C (ConsHBAg_C) (hepatitis B virus genotype C (consensus), UniProt P03140 175-400)
T7 construct: also called genotype C S-HBs
Test: flow cytometry, S-HBs-transfected 293-F cells

| Binder | % of bound S-HBs-expressing cells [%] |
| --- | --- |
| B1 | 67 |
| B2 | 83 |
| B3 | 67 |
| B4 | 72 |
| B5 | 82 |
| B6 | 76 |

Target: T8, consensus S-HBs protein of HBV genotype G (ConsHBAg_G) (hepatitis B virus genotype G (consensus), UniProt Q9IBI3 174-399)
T8 construct: also called genotype G S-HBs
Test: flow cytometry, S-HBs-transfected 293-F cells

| Binder | % of bound S-HBs-expressing cells [%] |
| --- | --- |
| B1 | 58 |
| B2 | 65 |
| B3 | 64 |
| B4 | 60 |
| B5 | 83 |
| B6 | 79 |

Target: T9, consensus S-HBs protein of HBV genotype B (ConsHBAg_B) (hepatitis B virus genotype B (consensus), UniProt Q9PWW3 175-400)
T9 construct: also called genotype B S-HBs
Test: flow cytometry, S-HBs-transfected 293-F cells

| Binder | % of bound S-HBs-expressing cells [%] |
| --- | --- |
| B1 | 67 |
| B2 | 55 |
| B3 | 70 |
| B4 | 64 |
| B5 | 83 |
| B6 | 68 |

Target: T10, consensus S-HBs protein of HBV genotype F (ConsHBAg_F) (hepatitis B virus genotype F (consensus), UniProt Q05496 175-400)
T10 construct: also called genotype F S-HBs
T10 sequence (Q05496 175-400, tags left off): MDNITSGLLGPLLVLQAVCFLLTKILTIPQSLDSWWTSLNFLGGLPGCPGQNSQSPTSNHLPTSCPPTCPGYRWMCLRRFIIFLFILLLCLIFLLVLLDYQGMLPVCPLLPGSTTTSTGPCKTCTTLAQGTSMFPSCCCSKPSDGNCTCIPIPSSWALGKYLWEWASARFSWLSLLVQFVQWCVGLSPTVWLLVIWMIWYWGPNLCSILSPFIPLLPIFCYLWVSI
Test: flow cytometry, S-HBs-transfected 293-F cells

| Binder | % of bound S-HBs-expressing cells [%] |
| --- | --- |
| B1 | 58 |
| B2 | 55 |
| B3 | 58 |
| B4 | 66 |
| B5 | 73 |
| B6 | 68 |

Target: genotype D S-HBs mutant protein T126A (hepatitis B virus genotype D, UniProt P03138 164-389)
Test: flow cytometry, S-HBs-transfected 293-F cells

| Binder | % of bound S-HBs-expressing cells [%] |
| --- | --- |
| B1 | 53 |
| B2 | 71 |
| B3 | 60 |
| B4 | 55 |
| B5 | 71 |
| B6 | 70 |

Target: T2, consensus S-HBs protein of HBV genotype …
Test: flow cytometry, S-HBs-transfected 293-F cells

| Binder | % of bound S-HBs-expressing cells [%] |
| --- | --- |
| B1 | 65 |
| B2 | 59 |
| B3 | 66 |
| B4 | 68 |
| B5 | 85 |
| B6 | 71 |

Target: T11, consensus S-HBs protein of HBV genotype D (ConsHBAg_D) (hepatitis B virus genotype D (consensus), UniProt P03138 164-389)
T11 construct: also called genotype D S-HBs; ConsD S-HBs
Test: flow cytometry, S-HBs-transfected 293-F cells

| Binder | % of bound S-HBs-expressing cells [%] |
| --- | --- |
| B1 | 64 |
| B2 | 62 |
| B3 | 66 |
| B4 | 71 |
| B5 | 89 |
| B6 | 73 |

Target: T3, Adw S-HBs protein (adw HBsAg particles, …)
Test: ELISA on recombinant HBV vaccine particles

| Binder | EC50 [ng/mL] |
| --- | --- |
| B1 | 7.2 |
| B2 | 42.1 |
| B3 | 4.9 |
| B4 | 8.9 |
| B5 | 27.7 |
| B6 | 26.1 |

Target: T4, Ayw S-HBs protein (ayw HBsAg particles, …)
Test: ELISA on recombinant HBV vaccine particles

| Binder | EC50 [ng/mL] |
| --- | --- |
| B1 | 5.7 |
| B2 | 19.3 |
| B3 | 3.5 |
| B4 | 9.5 |
| B5 | 5.1 |
| B6 | 12.3 |

Target: HBV genotype D viruses (produced in HepG2.2.15 cell culture supernatant) (hepatitis B virus genotype D)
Test: cell-based or functional assay

| Binder | HBV-gD in vitro neutralization (IC50 µg/ml) [µg/mL] |
| --- | --- |
| B1 | 0.000544 |
| B2 | 1.39e-07 |
| B3 | 5e-08 |
| B4 | 2.51e-06 |
| B5 | 3.87e-06 |
| B6 | 2.53e-05 |
